According to patent US20020082396A1 (published 2002):
Where a chain is given by its changes, count along the chain named. Values belong to the binder of their own block, whether it stands above or below them.

Target: T1, recombinant human IL-8 (Amersham) (human, UniProt P10145 28-99, limits assumed)
T1 construct: In the ELISA it is captured by goat anti-human IL-8 polyclonal antibody on the plate; In the neutrophil assay it is 125I-labelled and non-labelled IL-8 at 4 ng/ml each; also called human interleukin-8
T1 sequence (looked up): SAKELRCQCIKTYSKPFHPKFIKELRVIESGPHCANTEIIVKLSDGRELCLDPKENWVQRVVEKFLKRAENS
Assay: ELISA: human IL-8 captured by goat anti-human IL-8 polyclonal antibody, COS culture medium serially diluted, AP-labelled anti-human IgG

binding result: no binding
B1: antibody of the chimeric WS-4 L chain and version a of the reshaped human WS-4 H chain (chL/RVHa) (antibody, V domains shown)
VH: EVQLLESGGGLVQPGGSLRLSCAASGFTFSDYYLSWVRQAQGKGLELVGLIRNKANGYTREYSASVKGRLTISREDSKNTLYLQMSSLKTEDLAVYYCARENYRYDVELAYWGQGTLVTVSS
VL: DIQMTQSPASLSASVGETVTITCRASEIIYSYLAWYQQKQGKSPQLLVYNAKTLADGVSSRFSGSGSGTQFSLRISSLQPEDFGSYYCQHHFGFPRTFGGGTKLELK
notes: Human C kappa and human C gamma 1 regions (HEF-chWS4L-gk with HEF-RVHa-gg1), tested as COS cell culture medium

binding result: no binding
B2: reshaped human WS-4 antibody RVLa/RVHc (antibody, V domains shown)
VH: B1 VH with Q41P
VL: DIQMTQSPSSLSASVGDRVTITCRASEIIYSYLAWYQQKPGKAPKLLIYNAKTLADGVPSRFSGSGSGTDFTFTISSLQPEDIATYYCQHHFGFPRTFGQGTKVEIK
notes: Human C kappa and human C gamma 1 regions, tested as COS cell culture medium; also called antibody having H chain version c
